From PMC6917787, “Structural basis of nucleosome assembly by the Abo1 AAA+ ATPase histone chaperone” (Nature Communications, 2019) come the findings set out here.

Series [1] relates to Histone H3-H4, Cy5-labelled ((only implied by the reviewer comments)). Description: single-molecule DNA curtain. The settings on record: DNA curtain: 5 nM Abo1 and 12.5 nM Cy5-H3-H4 pre-incubated on ice 15 min with 1 mM nucleotide, then 15 min with DNA without flow, YOYO-1 washed out in assay ….
In series [2] the target is Cy3-labeled histone H3–H4 (X. laevis) (UniProt P84233). As to the kind of experiment: fluorescence polarisation; fluorescence anisotropy; 0–1 μM Abo1 added to 20 nM Cy3-labeled H3–H4; 30 mM HEPES pH 7.5, 200 mM NaCl, 1 % glycerol, 2 mM MgCl2, 0.01 % NP-40; room temperature; affinity not significantly changed with nucleotide. In general terms: In fluorescence polarisation assays a small probe gives low polarisation when free and higher when bound to something large.

Series [3] concerns the molecule itself. As to the kind of experiment: SEC; Superose6 gel filtration of purified Abo1 in buffer with 2 mM EDTA, 2 mM MgCl2 or 2 mM MgATP. For orientation: In gel filtration, larger molecules generally elute earlier.
Series [4] deals with the molecule itself. Description: cryo-EM structure; Abo1 in 20 mM HEPES pH7.5, 250 mM NaCl, 1 mM DTT, 0.025 % octyl β-D-glucoside with 2 mM MgCl2 (apo), 2 mM MgADP or 2 mM MgATP (Walker B mutant).

Positions count from the first letter of the chain named. In names and notes the source's numbering stands. Where only a bound is given, the exact number is not on record here.

As for “lambda phage DNA (single-tethered DNA curtain)”, the binding signal (% DNA with bound H3-H4) in series [1] is 5.24; in series [1] (loading by wild-type Abo1 (5 nM), 1 mM ATP) it was 85; in series [1] (wild-type Abo1, no ATP) it was < 10.

B1: Abo1 (aa243–1190), wild type (enzyme, Schizosaccharomyces pombe, UniProt O14114 243-1190, looked up)
chain: GRIREKSDLADSDPLGVDSSLSFESVGGLDNYINQLKEMVMLPLLYPEIFQRFNMQPPRGVLFHGPPGTGKTLMARALAAACSSENKKVSFYMRKGADCLSKWVGEAERQLRLLFEEAKSTQPSIIFFDEIDGLAPVRSSKQEQIHASIVSTLLALMDGMESRGQVIIIGATNRPDAVDPALRRPGRFDREFYFPLPDRDARKKIIEIHTRNWDPPVPEWLCSMLAEKSKGYGGADLRALCTEAALNSIKRTYPQLYRSTKRLQIDPKTIKVKVKDFVMSMKRMIPSSERSSISPSKPLSPELKPLLNEAFQDIEKTLQKLMPVASKLNPLEEVMYDDPKENDFEYQQRLETFETLRIYKPRFLICGRKGLGQTALGPAILQQYEGVHVQSFDMSTLLQDSTQSIETSIIHLFLEVRRHTPSIIYIPDIDNWLNVLPLTAITTFSSMLERLDFSDQILFLALSSSPLSELHPQLREWFSSKQSVYSLQYPTRDSIIAFFQPILELIKASPTELPGGIPRKRRVLPELPLAPDPPPFTSQKITLKQTKQADMRLLNKLKIKLNALLGSLRARYRKFKKPLIDFNDIYCVDPETGHSYRSREECHYEFVDDVVKQIGSDQKFSMMSLEEIEKRTWDNCYCTPKQFVHDIKLILRDALQLEDSETIKRAQEMYANVLLGVEDMEDDQFSQRCERMALREAERRKLRHGKLQKHLDETKADMQFTSEKPSVDESITEVDDAIKDGPPVLAETLTNSLMEDVGPENVDMDIEDNEIFTNQSTMSVPSMLVENEESPKPDEYIDQKDKVQSPLLNGKSPVGVPSEAALRVSTDVSTNISSNGRADIPVDTLITSPADVPNNAPTDAHNITSADGHIENIEQEVVFPDLVFDEDRLTPLKQLLIDSTTGFTVDQLLHLHSFLYQIIWNTKSEWNRNSVVDECERAVKEFMINALQ
notes: Abo1, Schizosaccharomyces pombe ATAD2 homolog, aa243–1190 (acidic N-terminus truncated; two AAA+ domains, bromodomain and C-terminal domain); Gene synthesized (Genscript), pFastBac-HTB; also called recombinant Abo1; wild-type Abo1; source: Sf9 (baculovirus), purified (Ni-NTA, TEV cleavage, HiTrapQ); not shown: 6xHis, N-terminal, cleaved
For the molecule B1, in series [2], the Kd (commonly the free concentration of one partner at which half of the binding sites on the other are occupied at equilibrium, for simple one-to-one binding) is 23 nM. The stoichiometry N – broadly, a count of units in the complex or per binding partner – in series [3] worked out at 6.

B2: Abo1 Walker B mutant (E372Q), aa243–1190 (enzyme, Schizosaccharomyces pombe, UniProt O14114 243-1190, looked up)
chain: B1 chain with E130Q
notes: Abo1, Schizosaccharomyces pombe, aa243–1190, Walker B mutation E372Q; also called ATP-Abo1 Walker B mutant; ATP-Abo1; source: Sf9 (baculovirus), purified (Ni-NTA, TEV cleavage, HiTrapQ); not shown: 6xHis, N-terminal, cleaved
As to B2, the binding result in series [4] is “binds”.
